We go through two substances from article doi:10.1101/2024.10.04.616518.

pKd, pKi: −log10 of the molar value.

The target in assay [1] is ixochymostatin (Ixodes scapularis). Briefly: SPR. A general note: Surface plasmon resonance follows binding to a sensor surface in real time, without labels.
Assay [2] addresses bovine pancreatic chymotrypsin (bovine). Briefly: enzyme inhibition kinetics.

Sequence of ixochymostatin (Ixodes scapularis) (B7PCV3 21-91): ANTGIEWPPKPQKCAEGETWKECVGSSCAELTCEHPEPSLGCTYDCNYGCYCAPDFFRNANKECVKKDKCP
Sequence of ixochymostatin (natural protein) (B7PCV3 21-91): as above

Consider bovine pancreatic chymotrypsin (enzyme), for which, in assay [1], the pKd (in general, −log10 of the Kd, conventionally taken in molar units) is 10.12; the koff – broadly, a measure of how fast the partners let go of each other – was 1.2e-05 s⁻¹; the kon – broadly, a measure of how fast the partners come together – was 160000 M⁻¹ s⁻¹.
For the substance ixochymostatin (natural protein), in assay [2], the pKi (commonly the Ki on a negative log10 scale, so that one unit is a factor of ten) is 9.85; the Ki^app (Morrison equation) was determined as 0.81 nM; the apparent Ki (Ki^app), from IC50 against protease concentration came to 16 nM.
